# Assay results from US11771766B2, “Drug delivery system containing phospholipid and cholesterol” (Taiwan Liposome Co., Ltd, priority 2009, dated 2023).
# Columns and labels:
# [1] = Gel filtration (Sepharose 4B) of drug/delivery vehicle mixtures: percentage of non-associated drug; assay type: physicochemical; conditions: mixed with DOPC/DOPG/cholesterol vehicle (weight ratio 8.8/1/1.6), 50 mM phosphate buffer pH 6.2
# Protocol: DOPC, DOPG, and cholesterol at a weight ratio of 8.8/1/1.6 were dissolved in chloroform, which was then evaporated under vacuum using a rotary evaporator. The dried mixture of the phospholipids and cholesterol thus produced was suspended in deionized water to form an aqueous suspension. The suspension is then homogenized via sonication using a cup horn sonicator (Misonix Sonicator 3000), sterilized by filtration, filled aseptically in a vial, and lyophilized to form a phospholipid-cholesterol-containing delivery vehicle. The phospholipid concentration in the vehicle was determined by a conventional phosphorus assay to ensure that the vehicle contained an appropriate total amount of the phospholipids.
# The mixtures thus formed were diluted 18-100-fold in the same phosphate buffer and an aliquot of each mixture ([…]) was subjected to gel-filtration to determine the percentage of the therapeutic agent that was in non-associated form. Briefly, an aliquot of a mixture was loaded onto a Sepharose 4B column (diameter: 1.8 mm; length: 315 mm). The components in the mixture were then eluted by 50 mM phosphate buffer (pH 6.2). Fractions containing the therapeutic agent in different form, i.e., non-associated form or associated with the phospholipids, were collected, their absorbance being measured at 215 nm and 254 nm. The amount of the therapeutic agent in each fraction was determined based on the values of OD215 and OD254.
# [2] = Pharmacokinetic properties of vitreous Avastin after intravitreal injection (Example 6); assay type: in vivo, Rabbits
# Protocol: Rabbits were injected intravitreally with either Avastin alone (control rabbits) or Avastin mixed with a delivery vehicle containing DOPC/Cholesterol/DOPG at a ratio 67.5/25/7.5 (test rabbits). Vitreous Avastin concentrations of the control rabbits were examined by ELISA at days 7, 21, and 28 post injection and those of the test rabbits were examined at days 7, 21, 28, 35, 41, and 49 post injection.
# In a similar study, the vitreous Avastin concentrations were monitored 7, 28, 49, 70, 91 and 112 days post intravitreal injection.
# [3] = Vitreous Avastin concentration after intravitreal injection, by ELISA (Examples 2-5); assay type: in vivo, New Zealand White rabbits; conditions: Avastin dose 1.25 mg per eye
# Protocol: The effect of the delivery vehicles mentioned above in prolonging the lifetime of Avastin in eyes was examined following the method described in Bakri et al., Ophthalmology, 2007, 114:5, 855-859. Briefly, New Zealand White rabbits were sedated by intramuscular injection of a mixture containing Zoletil (15 mg/ml) and Rompun (7 mg/ml). Both eyes of each rabbit were injected intravitreally with 50 μl of Avastin (25 mg/ml) or one of the aqueous suspensions mentioned above (at an Avastin dose of 1.25 mg per eye) using a 30-gauge needle. Rabbits were sacrificed at 7 days or 21 days after injection and their eyes were promptly enucleated. The vitreous humor was isolated from each eye together with retina and Avastin concentration was determined by ELISA as follows.
# A F96 MaxiSorp™ NUNC-IMMUNO plate was coated with VEGF (10 μg/ml in PBS, pH 7.4; 100 μl/well) at 4° C. overnight. The VEGF-coated plate was washed with PBS and then blocked with a blocking buffer (5% skim milk in PBS) at room temperature for 1 hour. […] The absorbance at 450 nm (OD450) of each well was determined by an ELISA reader. Various pre-determined Avastin concentrations (3.125-25 ng/ml) were used to establish a standard Avastin concentration/OD450 curve. The Avastin concentration in each sample was determined based on its OD450 value in view of the standard curve. […]
compound,measurement,setting,value
"C[C@@H]1C[C@H]2[C@@H]3CCC4=CC(=O)C=C[C@]4(C)[C@@]3(F)[C@@H](O)C[C@]2(C)[C@@]1(O)C(=O)COP(=O)(O)O [Dexamethasone sodium phosphate, dexamethasone sodium phosphate]",Percentage of Non-Associated Drug (% ± S.D.),[1],68.5 ± 0.5%
"N[C@@H](Cc1c[nH]c2ccccc12)C(=O)O [Tryptophan, tryptophan]",Percentage of Non-Associated Drug (% ± S.D.),[1],86.1 ± 0.8%
"N[C@@H](Cc1ccc(O)cc1)C(=O)O [Tyrosine, tyrosine]",Percentage of Non-Associated Drug (% ± S.D.),[1],80.3 ± 0.1%
Avastin: an antibody specific to vascular endothelial growth factor,Percentage of Non-Associated Drug (% ± S.D.),[1],62.1 ± 0.9%
same,vitreous Avastin concentration,[2]; 28 days after intravitreal injection,13 µg/mL
same,t1/2 (half-life of intravitreal Avastin),"[2]; control rabbits, vitreous",93.6 h
same,"vitreous concentration of Avastin over time (in words, FIG. 1)",[2]; days 7 to 49 after intravitreal injection,decreased much rapidly over time
same,AUC(7-∞),"[2]; vitreous, from the 7th day to infinity",3294 µg·days/mL
same,AUC(7-112),"[2]; vitreous, from the 7th day to the 112th day",3294 µg·days/mL
same,AUC(112-∞),"[2]; vitreous, from the 112th day to infinity",0 µg·days/mL
same,Avastin Concentration,"[3]; vitreous humor with retina, seven days after intravitreal injection",247 ± 27 µg/mL
same,Avastin Concentration,"[3]; vitreous, 21 days after intravitreal injection",37 ± 7 µg/mL
HFRRHLC [HFRRHLC (SEQ ID NO: 1) peptide],Percentage of Non-Associated Drug (% ± S.D.),[1],71.9 ± 0.2%
HWRGWVC [HWRGWVC (SEQ ID NO: 2) peptide],Percentage of Non-Associated Drug (% ± S.D.),[1],52.4 ± 0.2%
bovine serum albumin,Percentage of Non-Associated Drug (% ± S.D.),[1],87.2 ± 0.4%
